Kd data for one molecule are collected here from patent publication US20080044420A1 (published 2008).

In this assay the target is T1, human IL-13R130Q (human, UniProt P35225 35-146, mildly biotinylated (approximately 1-2 molecules per molecule IL-13R130Q) in ELISA screens and receptor binding assays; not biotinylated when amine-coupled to the Biacore chip ; Mildly biotinylated …).
T1 construct: also called IL-13 R130Q variant; biotinylated IL-13R130Q
Briefly: method and antigen form not given. The protocol: Affinity determination by surface plasmon resonance (BIAcore™). […] F1 chips (Biacore, Sweden) were coated with ˜800 RU IL-13R130Q (250 μg/ml, 10 mM acetate buffer, pH 4.0) and respective amount of HSA (20 μg/ml/10 mM acetate buffer, pH 4.5) to the reference flow cell, using standard EDC-NHS amine coupling chemistry. Due to the instability of the antigen on the chip a freshly prepared chip was used for every measurement. Regeneration was done with 2×5 μl pulses of 10 mM HCl. All kinetic measurements were performed in PBS buffer (136 mM NaCl, 2.7 mM KCl, 10 mM Na₂HPO₄, 1.76 mM KH₂PO₄ pH 7.4) at a flow rate of 20 μl/min using Fab concentration range from 1.5-500 nM. Injection time for each concentration was 1 min. All sensograms were fitted globally using BIA evaluation software 3.1. Abbreviations: EDC 1-Ethyl-3-(3-Dimethlaminopropyl) carbodiimide; NHS N-hydroxysuccinimide; RU Resonance Units

One may read the Kd as a measure of binding affinity in units of concentration. Low values mean a tighter complex, high ones a looser complex.

T1 sequence (P35225 35-146 limits assumed): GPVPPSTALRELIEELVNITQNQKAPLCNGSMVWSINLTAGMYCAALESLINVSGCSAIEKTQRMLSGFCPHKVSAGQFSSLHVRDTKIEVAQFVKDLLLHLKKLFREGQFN

B1: lead candidate SEQ ID NOS:48-49 (HC AA50 Gly, AA54 Asp, AA56 Ser; LC AA1 Ser, AA2 Tyr) (Fab, V domains shown)
VH: QVQLVESGGGLVQPGGSLRLSCAASGFTFNSYWINWVRQAPGKGLEWVSGIAYDSSNTLYADSVKGRFTISRDNSKNTLYLQMNSLRAEDTAVYYCARGLGAFHWDMQPDYWGQGTLVTVSS
VL: SYELTQPPSVSVAPGQTARISCSGDNIGGTFVSWYQQKPGQAPVLVIYDDNDRPSGIPERFSGSNSGNTATLTISGTQAEDEADYYCGTWDMVTNNVFGGGTKLTVL
notes: also called final lead candidate
On to B1, for which the Kd is under 10 µM.
